B1: EtLPP1 (Eimeria tenella) (protein)
chain: MVSHEPDPTRTYSIDIRNGGSSVGRTQDPSLPPALDSATSLSSSPQFSCAPTRQHRRPYFLRICIHLMTCIILLVWSLVLLPKPAVVRGAFCNNTGISAPYQRESVSSFGLFGICFGIPFFLVAVVELLFSAVRSTREGNQEETSVTLFNKKLSQTLVDLYKYWGTLAVSLNLAFLLTNALKAAVGSLRPHFLDVCKPDWSQVACKDPTSERYVYVDNFHCTGDPKLMEEARRSFPSGHSSCTVCGMLFGALYLHFRFSCQGQSTGCCSEQPLKRGRKSAIVEQVYSAFQALVPFLQAIMLLLALYIPATRIRENFHHGRDVAAGMAIGVLSTLYGFFLVLNVNGR
notes: full-length, 347 residues, calculated Mr 38239; His6-tagged (pcDNA3.1/His), transient in HEK293 cells, membrane fraction, Ni-NTA purified; bands 40 and 42 kDa, monomer

How the values were obtained:
EtLPP1 = target: T1, EtLPP1 (Eimeria tenella, UniProt A0A0A7H6F4); experiment: PiPer phosphate-release fluorescence assay; assay type: biochemical; details: pH 6.5, 37°C, Triton X-100 mixed micelles, 1 mg/ml fatty-acid free BSA, Mg2+-independent
T1 construct: full-length, 347 residues, calculated Mr 38239; His6-tagged (pcDNA3.1/His), transient in HEK293 cells, membrane fraction, Ni-NTA purified; bands 40 and 42 kDa, monomer
T1 sequence (A0A0A7H6F4 1-346): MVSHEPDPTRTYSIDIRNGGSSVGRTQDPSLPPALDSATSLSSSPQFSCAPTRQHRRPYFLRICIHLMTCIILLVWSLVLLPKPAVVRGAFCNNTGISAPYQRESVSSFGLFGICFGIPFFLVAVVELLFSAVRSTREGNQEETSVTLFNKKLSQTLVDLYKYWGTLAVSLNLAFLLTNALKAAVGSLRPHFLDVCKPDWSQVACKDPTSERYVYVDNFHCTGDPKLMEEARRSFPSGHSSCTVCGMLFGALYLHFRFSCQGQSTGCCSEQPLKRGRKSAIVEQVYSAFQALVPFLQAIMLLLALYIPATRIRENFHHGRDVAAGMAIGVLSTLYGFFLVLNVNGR
Description: (§1) PiPer phosphate-release fluorescence assay on EtLPP1

[1] = substrate: CCCCCCCCCCCCC/C=C/[C@@H](O)[C@@H](N)COP(=O)(O)O; experiment: PiPer phosphate-release fluorescence assay; assay type: biochemical, Eimeria tenella; details: pH 6.5, 37°C, Triton X-100 mixed micelles, 1 mg/ml fatty-acid free BSA, Mg2+-independent
Description: as §1

| Molecule | Km (EtLPP1) | Km [1] | Vmax [1] |
| --- | --- | --- | --- |
| LPA | 46 ± 9 µM | – | – |
| B1 | – | 22 ± 6 µM | 0.00015 µmol/min/mg |
